This passage reports percent detected in the pellet with F-actin results from article PMC4899731.

This assay addresses F-actin (filamentous actin) of the Actin Binding Protein Biochem Kit (BK013, Cytoskeleton) (UniProt P60709). The experiment in a line: co-sedimentation; F-actin spin-down assay with the Actin Binding Protein Biochem Kit (BK013, Cytoskeleton), according to manufacturer instructions; ultracentrifugation, SDS-PAGE, Coomassie staining, signals quantified.

“cyclin A2-GST (glutathione S-transferase) (from UniProt P20248 1-432) (natural protein)” came in with a percent detected in the pellet with F-actin of 37%.
